Key:
MSH2–MSH6 heterodimer = MSH2–MSH6 heterodimer (human, UniProt P43246 1-934; P52701 1-1360); experiment: ELISA
MSH2–MSH3 heterodimer = MSH2–MSH3 heterodimer (human, UniProt P43246 1-934; P20585 1-1137); experiment: ELISA
MSH2–MSH3 heterodimer, sequence (P43246 whole entry, chain 1 of 2): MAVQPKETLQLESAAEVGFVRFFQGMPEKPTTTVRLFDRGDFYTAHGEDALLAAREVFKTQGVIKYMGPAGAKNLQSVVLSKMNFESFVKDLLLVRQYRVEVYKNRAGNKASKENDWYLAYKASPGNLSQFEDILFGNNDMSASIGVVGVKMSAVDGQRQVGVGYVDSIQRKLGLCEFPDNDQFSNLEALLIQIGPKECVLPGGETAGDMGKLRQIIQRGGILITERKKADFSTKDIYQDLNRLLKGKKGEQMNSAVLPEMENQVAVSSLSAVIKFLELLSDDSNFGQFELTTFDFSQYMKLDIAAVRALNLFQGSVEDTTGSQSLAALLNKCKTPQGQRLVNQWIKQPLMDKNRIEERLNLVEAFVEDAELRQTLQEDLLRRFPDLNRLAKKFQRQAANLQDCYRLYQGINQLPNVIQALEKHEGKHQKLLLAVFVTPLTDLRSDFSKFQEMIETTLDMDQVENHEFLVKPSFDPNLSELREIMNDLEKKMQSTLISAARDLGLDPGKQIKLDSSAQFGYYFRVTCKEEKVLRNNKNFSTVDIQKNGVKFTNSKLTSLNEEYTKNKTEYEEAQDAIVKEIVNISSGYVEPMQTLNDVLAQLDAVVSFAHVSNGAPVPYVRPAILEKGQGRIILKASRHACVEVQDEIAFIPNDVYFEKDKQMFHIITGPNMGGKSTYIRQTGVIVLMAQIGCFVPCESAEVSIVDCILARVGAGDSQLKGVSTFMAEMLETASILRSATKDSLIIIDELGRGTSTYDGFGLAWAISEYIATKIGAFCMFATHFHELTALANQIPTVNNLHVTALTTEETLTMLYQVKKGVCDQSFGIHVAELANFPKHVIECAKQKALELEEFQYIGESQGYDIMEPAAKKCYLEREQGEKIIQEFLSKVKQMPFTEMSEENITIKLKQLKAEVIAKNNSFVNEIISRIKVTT
MSH2–MSH3 heterodimer, sequence (P20585 whole entry, chain 2 of 2): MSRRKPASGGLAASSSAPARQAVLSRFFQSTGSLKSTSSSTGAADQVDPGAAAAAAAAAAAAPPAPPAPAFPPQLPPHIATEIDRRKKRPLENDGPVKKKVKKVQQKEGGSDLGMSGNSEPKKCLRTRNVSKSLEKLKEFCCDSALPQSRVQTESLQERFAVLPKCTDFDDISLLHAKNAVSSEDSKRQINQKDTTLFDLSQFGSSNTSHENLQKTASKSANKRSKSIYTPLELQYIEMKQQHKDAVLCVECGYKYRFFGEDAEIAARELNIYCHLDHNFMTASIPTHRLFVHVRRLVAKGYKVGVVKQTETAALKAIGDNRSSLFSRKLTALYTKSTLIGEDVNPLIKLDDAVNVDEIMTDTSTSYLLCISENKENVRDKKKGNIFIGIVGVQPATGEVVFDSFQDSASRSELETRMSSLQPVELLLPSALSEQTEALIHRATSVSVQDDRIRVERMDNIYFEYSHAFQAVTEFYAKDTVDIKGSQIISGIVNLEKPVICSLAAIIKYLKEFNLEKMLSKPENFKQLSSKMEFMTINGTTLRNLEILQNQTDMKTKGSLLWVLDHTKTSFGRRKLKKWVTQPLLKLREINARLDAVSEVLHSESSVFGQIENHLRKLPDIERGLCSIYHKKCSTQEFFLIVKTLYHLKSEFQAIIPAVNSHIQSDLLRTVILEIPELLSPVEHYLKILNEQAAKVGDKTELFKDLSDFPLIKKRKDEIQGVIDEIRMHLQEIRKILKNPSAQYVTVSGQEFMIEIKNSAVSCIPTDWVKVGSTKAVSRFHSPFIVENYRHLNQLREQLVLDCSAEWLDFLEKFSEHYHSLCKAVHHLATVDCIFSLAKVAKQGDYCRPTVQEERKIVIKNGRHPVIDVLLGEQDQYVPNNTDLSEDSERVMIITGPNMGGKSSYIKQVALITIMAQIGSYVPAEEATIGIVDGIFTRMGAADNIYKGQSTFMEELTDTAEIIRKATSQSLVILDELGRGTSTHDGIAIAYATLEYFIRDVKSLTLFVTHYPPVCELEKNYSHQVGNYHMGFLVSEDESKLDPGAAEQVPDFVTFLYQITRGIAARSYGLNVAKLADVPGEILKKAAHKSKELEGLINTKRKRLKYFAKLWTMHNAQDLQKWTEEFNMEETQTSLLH

MSH2–MSH6 heterodimer, sequence (P43246 whole entry, chain 1 of 2): as the sequence (P43246 whole entry, chain 1 of 2) above
MSH2–MSH6 heterodimer, sequence (P52701 whole entry, chain 2 of 2): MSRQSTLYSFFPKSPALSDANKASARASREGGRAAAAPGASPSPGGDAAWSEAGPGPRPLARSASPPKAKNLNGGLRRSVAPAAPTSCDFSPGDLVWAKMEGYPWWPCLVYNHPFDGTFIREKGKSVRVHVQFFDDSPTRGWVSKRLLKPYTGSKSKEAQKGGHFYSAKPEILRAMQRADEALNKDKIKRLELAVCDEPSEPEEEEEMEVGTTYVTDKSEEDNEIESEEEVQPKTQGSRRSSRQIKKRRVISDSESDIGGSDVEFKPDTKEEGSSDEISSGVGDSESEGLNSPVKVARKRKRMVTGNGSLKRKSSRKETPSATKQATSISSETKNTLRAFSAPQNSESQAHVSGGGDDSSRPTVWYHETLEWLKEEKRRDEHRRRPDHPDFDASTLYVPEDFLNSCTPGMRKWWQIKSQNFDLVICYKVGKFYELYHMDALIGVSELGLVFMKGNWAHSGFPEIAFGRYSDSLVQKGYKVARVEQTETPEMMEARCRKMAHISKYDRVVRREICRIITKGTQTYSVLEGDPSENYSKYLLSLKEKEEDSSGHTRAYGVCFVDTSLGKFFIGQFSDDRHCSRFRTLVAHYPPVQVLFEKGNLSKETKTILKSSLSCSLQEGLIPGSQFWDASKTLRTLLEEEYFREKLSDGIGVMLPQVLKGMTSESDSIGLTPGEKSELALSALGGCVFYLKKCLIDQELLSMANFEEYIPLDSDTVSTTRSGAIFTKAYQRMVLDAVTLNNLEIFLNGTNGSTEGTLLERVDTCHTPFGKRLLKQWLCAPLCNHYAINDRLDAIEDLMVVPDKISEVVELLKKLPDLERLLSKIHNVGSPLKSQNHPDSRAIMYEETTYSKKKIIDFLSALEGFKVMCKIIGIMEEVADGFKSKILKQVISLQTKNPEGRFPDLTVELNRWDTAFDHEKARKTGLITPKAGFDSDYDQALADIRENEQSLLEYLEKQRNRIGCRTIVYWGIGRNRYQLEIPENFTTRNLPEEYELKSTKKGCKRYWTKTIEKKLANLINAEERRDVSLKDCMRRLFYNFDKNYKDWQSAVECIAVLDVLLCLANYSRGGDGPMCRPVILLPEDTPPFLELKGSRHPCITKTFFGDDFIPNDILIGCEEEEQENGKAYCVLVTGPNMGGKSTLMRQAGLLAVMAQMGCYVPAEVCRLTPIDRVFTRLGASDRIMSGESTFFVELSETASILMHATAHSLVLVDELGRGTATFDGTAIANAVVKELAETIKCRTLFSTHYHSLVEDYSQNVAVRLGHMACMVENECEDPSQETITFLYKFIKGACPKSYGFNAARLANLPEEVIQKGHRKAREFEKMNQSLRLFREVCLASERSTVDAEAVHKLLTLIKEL

Kd (MSH2–MSH6 heterodimer): 6.5 ± 0.8 nM | Kd (MSH2–MSH3 heterodimer): 7.4 ± 1 nM
B1: recombinant human DNA polymerase η, (His)6-tagged (enzyme, UniProt Q9Y253 1-713, looked up)
chain: MATGQDRVVALVDMDCFFVQVEQRQNPHLRNKPCAVVQYKSWKGGGIIAVSYEARAFGVTRSMWADDAKKLCPDLLLAQVRESRGKANLTKYREASVEVMEIMSRFAVIERASIDEAYVDLTSAVQERLQKLQGQPISADLLPSTYIEGLPQGPTTAEETVQKEGMRKQGLFQWLDSLQIDNLTSPDLQLTVGAVIVEEMRAAIERETGFQCSAGISHNKVLAKLACGLNKPNRQTLVSHGSVPQLFSQMPIRKIRSLGGKLGASVIEILGIEYMGELTQFTESQLQSHFGEKNGSWLYAMCRGIEHDPVKPRQLPKTIGCSKNFPGKTALATREQVQWWLLQLAQELEERLTKDRNDNDRVATQLVVSIRVQGDKRLSSLRRCCALTRYDAHKMSHDAFTVIKNCNTSGIQTEWSPPLTMLFLCATKFSASAPSSSTDITSFLSSDPSSLPKVPVTSSEAKTQGSGPAVTATKKATTSLESFFQKAAERQKVKEASLSSLTAPTQAPMSNSPSKPSLPFQTSQSTGTEPFFKQKSLLLKQKQLNNSSVSSPQQNPWSNCKALPNSLPTEYPGCVPVCEGVSKLEESSKATPAEMDLAHNSQSMHASSASKSVLEVTQKATPNPSLLAAEDQVPCEKCGSLVPVWDMPEHMDYHFALELQKSFLQPHSSNPQVVSAVSHQGKRNPKSPLACTNKRPRPEGMQTLESFFKPLTH

Source: publication PMC2213055 (The Journal of Experimental Medicine, 2005)
